Test results reported in US20140087995A1 (published 2014).
Numbered stars: 1 amine (or outer) side, 2 acyl side, 3 side chain; on linkers, the order of the positions; unused ones are H or OH. Bridge positions count the residues as written; N and C are the ends. Side chains are listed from the residue outwards. Ends that are not written are not given here. * marks the point of attachment. C20 diacid = O=C(O)CCCCCCCCCCCCCCCCCCC(=O)*; γGlu = O=C(O)[C@H](CCC(=O)[*:2])N[*:1]

T1: human calcitonin receptor (human, UniProt P30988 25-474)
T1 construct: whole, on cells; Used as cell membranes prepared from the transfected BHK cells (Assay VII), not as intact cells; also called hCTR; hCT
T1 sequence (looked up): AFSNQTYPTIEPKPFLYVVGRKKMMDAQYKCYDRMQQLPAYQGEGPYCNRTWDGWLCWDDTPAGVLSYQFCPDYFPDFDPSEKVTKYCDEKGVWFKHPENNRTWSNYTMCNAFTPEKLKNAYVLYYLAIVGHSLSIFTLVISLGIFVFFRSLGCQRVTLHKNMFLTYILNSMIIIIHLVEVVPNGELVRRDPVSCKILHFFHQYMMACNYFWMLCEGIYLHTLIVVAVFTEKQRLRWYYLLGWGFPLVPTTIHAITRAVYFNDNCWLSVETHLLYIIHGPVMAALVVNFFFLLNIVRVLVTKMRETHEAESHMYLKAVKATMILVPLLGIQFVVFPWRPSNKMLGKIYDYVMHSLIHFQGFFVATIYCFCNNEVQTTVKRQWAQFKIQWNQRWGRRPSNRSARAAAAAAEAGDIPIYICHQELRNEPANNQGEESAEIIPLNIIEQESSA

B1: N^α1-[(4S)-4-carboxy-4-(19-carboxynonadecanoylamino)butanoyl]-[Glu14,Arg17,Pro21,Pro25,Pro28,Pro29]-h-amylin (peptide)
peptide: {C20 diacid-γGlu}-KCNTATCATQRLAEFLRHSSPNFGPILPPTNVGSNTY-NH2
modifications: disulfide 2-7
SMILES: CC[C@H](C)[C@H](NC(=O)[C@@H]1CCCN1C(=O)CNC(=O)[C@H](Cc1ccccc1)NC(=O)[C@H](CC(N)=O)NC(=O)[C@@H]1CCCN1C(=O)[C@H](CO)NC(=O)[C@H](CO)NC(=O)[C@H](Cc1c[nH]cn1)NC(=O)[C@H](CCCNC(=N)N)NC(=O)[C@H](CC(C)C)NC(=O)[C@H](Cc1ccccc1)NC(=O)[C@H](CCC(=O)O)NC(=O)[C@H](C)NC(=O)[C@H](CC(C)C)NC(=O)[C@H](CCCNC(=N)N)NC(=O)[C@H](CCC(N)=O)NC(=O)[C@@H](NC(=O)[C@H](C)NC(=O)[C@@H]1CSSC[C@H](NC(=O)[C@H](CCCCN)NC(=O)CC[C@H](NC(=O)CCCCCCCCCCCCCCCCCCC(=O)O)C(=O)O)C(=O)N[C@@H](CC(N)=O)C(=O)N[C@@H]([C@@H](C)O)C(=O)N[C@@H](C)C(=O)N[C@@H]([C@@H](C)O)C(=O)N1)[C@@H](C)O)C(=O)N[C@@H](CC(C)C)C(=O)N1CCC[C@H]1C(=O)N1CCC[C@H]1C(=O)N[C@H](C(=O)N[C@@H](CC(N)=O)C(=O)N[C@H](C(=O)NCC(=O)N[C@@H](CO)C(=O)N[C@@H](CC(N)=O)C(=O)N[C@H](C(=O)N[C@@H](Cc1ccc(O)cc1)C(N)=O)[C@@H](C)O)C(C)C)[C@@H](C)O
notes: also called compound 6
B2: N^ε1-[(4S)-4-carboxy-4-[[(4S)-4-carboxy-4-(19-carboxynonadecanoylamino)butanoyl]amino]butanoyl]-[Asp14,Arg17,Pro21,Pro26,Asp35]-h-amylin (peptide)
peptide: K([γGlu-γGlu-C20 diacid])CNTATCATQRLADFLRHSSPNFGAPLSSTNVGSDTY-NH2
modifications: disulfide 2-7; N-terminus assumed
SMILES: CC(C)C[C@H](NC(=O)[C@H](CCCNC(=N)N)NC(=O)[C@H](CCC(N)=O)NC(=O)[C@@H](NC(=O)[C@H](C)NC(=O)[C@@H]1CSSC[C@H](NC(=O)[C@@H](N)CCCCNC(=O)CC[C@H](NC(=O)CC[C@H](NC(=O)CCCCCCCCCCCCCCCCCCC(=O)O)C(=O)O)C(=O)O)C(=O)N[C@@H](CC(N)=O)C(=O)N[C@@H]([C@@H](C)O)C(=O)N[C@@H](C)C(=O)N[C@@H]([C@@H](C)O)C(=O)N1)[C@@H](C)O)C(=O)N[C@@H](C)C(=O)N[C@@H](CC(=O)O)C(=O)N[C@@H](Cc1ccccc1)C(=O)N[C@@H](CC(C)C)C(=O)N[C@@H](CCCNC(=N)N)C(=O)N[C@@H](Cc1c[nH]cn1)C(=O)N[C@@H](CO)C(=O)N[C@@H](CO)C(=O)N1CCC[C@H]1C(=O)N[C@@H](CC(N)=O)C(=O)N[C@@H](Cc1ccccc1)C(=O)NCC(=O)N[C@@H](C)C(=O)N1CCC[C@H]1C(=O)N[C@@H](CC(C)C)C(=O)N[C@@H](CO)C(=O)N[C@@H](CO)C(=O)N[C@H](C(=O)N[C@@H](CC(N)=O)C(=O)N[C@H](C(=O)NCC(=O)N[C@@H](CO)C(=O)N[C@@H](CC(=O)O)C(=O)N[C@H](C(=O)N[C@@H](Cc1ccc(O)cc1)C(N)=O)[C@@H](C)O)C(C)C)[C@@H](C)O
notes: also called compound 1
B3: N^ε1-[(4S)-4-carboxy-4-[[(4S)-4-carboxy-4-(19-carboxynonadecanoylamino)butanoyl]amino]butanoyl]-[Asp14,Arg17,Pro21,Pro27,Asp35]-h-amylin (peptide)
peptide: K([γGlu-γGlu-C20 diacid])CNTATCATQRLADFLRHSSPNFGAIPSSTNVGSDTY-NH2
modifications: disulfide 2-7; N-terminus assumed
SMILES: CC[C@H](C)[C@H](NC(=O)[C@H](C)NC(=O)CNC(=O)[C@H](Cc1ccccc1)NC(=O)[C@H](CC(N)=O)NC(=O)[C@@H]1CCCN1C(=O)[C@H](CO)NC(=O)[C@H](CO)NC(=O)[C@H](Cc1c[nH]cn1)NC(=O)[C@H](CCCNC(=N)N)NC(=O)[C@H](CC(C)C)NC(=O)[C@H](Cc1ccccc1)NC(=O)[C@H](CC(=O)O)NC(=O)[C@H](C)NC(=O)[C@H](CC(C)C)NC(=O)[C@H](CCCNC(=N)N)NC(=O)[C@H](CCC(N)=O)NC(=O)[C@@H](NC(=O)[C@H](C)NC(=O)[C@@H]1CSSC[C@H](NC(=O)[C@@H](N)CCCCNC(=O)CC[C@H](NC(=O)CC[C@H](NC(=O)CCCCCCCCCCCCCCCCCCC(=O)O)C(=O)O)C(=O)O)C(=O)N[C@@H](CC(N)=O)C(=O)N[C@@H]([C@@H](C)O)C(=O)N[C@@H](C)C(=O)N[C@@H]([C@@H](C)O)C(=O)N1)[C@@H](C)O)C(=O)N1CCC[C@H]1C(=O)N[C@@H](CO)C(=O)N[C@@H](CO)C(=O)N[C@H](C(=O)N[C@@H](CC(N)=O)C(=O)N[C@H](C(=O)NCC(=O)N[C@@H](CO)C(=O)N[C@@H](CC(=O)O)C(=O)N[C@H](C(=O)N[C@@H](Cc1ccc(O)cc1)C(N)=O)[C@@H](C)O)C(C)C)[C@@H](C)O
notes: also called compound 2
B4: N{Alpha-1}-[(4S)-4-carboxy-4-(19-carboxynonadecanoylamino)butanoyl]-[Glu14,Arg17,Pro21,Pro27,Lys34]-h-amylin (peptide)
peptide: {C20 diacid-γGlu}-KCNTATCATQRLAEFLRHSSPNFGAIPSSTNVGKNTY-NH2
modifications: disulfide 2-7
SMILES: CC[C@H](C)[C@H](NC(=O)[C@H](C)NC(=O)CNC(=O)[C@H](Cc1ccccc1)NC(=O)[C@H](CC(N)=O)NC(=O)[C@@H]1CCCN1C(=O)[C@H](CO)NC(=O)[C@H](CO)NC(=O)[C@H](Cc1c[nH]cn1)NC(=O)[C@H](CCCNC(=N)N)NC(=O)[C@H](CC(C)C)NC(=O)[C@H](Cc1ccccc1)NC(=O)[C@H](CCC(=O)O)NC(=O)[C@H](C)NC(=O)[C@H](CC(C)C)NC(=O)[C@H](CCCNC(=N)N)NC(=O)[C@H](CCC(N)=O)NC(=O)[C@@H](NC(=O)[C@H](C)NC(=O)[C@@H]1CSSC[C@H](NC(=O)[C@H](CCCCN)NC(=O)CC[C@H](NC(=O)CCCCCCCCCCCCCCCCCCC(=O)O)C(=O)O)C(=O)N[C@@H](CC(N)=O)C(=O)N[C@@H]([C@@H](C)O)C(=O)N[C@@H](C)C(=O)N[C@@H]([C@@H](C)O)C(=O)N1)[C@@H](C)O)C(=O)N1CCC[C@H]1C(=O)N[C@@H](CO)C(=O)N[C@@H](CO)C(=O)N[C@H](C(=O)N[C@@H](CC(N)=O)C(=O)N[C@H](C(=O)NCC(=O)N[C@@H](CCCCN)C(=O)N[C@@H](CC(N)=O)C(=O)N[C@H](C(=O)N[C@@H](Cc1ccc(O)cc1)C(N)=O)[C@@H](C)O)C(C)C)[C@@H](C)O
notes: also called compound 36
B5: N^ε1-[(4S)-4-carboxy-4-[[(4S)-4-carboxy-4-(19-carboxynonadecanoylamino)butanoyl]amino]butanoyl]-[Asp14,Arg17,Pro21,Pro27,Arg35]-h-amylin (peptide)
peptide: K([γGlu-γGlu-C20 diacid])CNTATCATQRLADFLRHSSPNFGAIPSSTNVGSRTY-NH2
modifications: disulfide 2-7; N-terminus assumed
SMILES: CC[C@H](C)[C@H](NC(=O)[C@H](C)NC(=O)CNC(=O)[C@H](Cc1ccccc1)NC(=O)[C@H](CC(N)=O)NC(=O)[C@@H]1CCCN1C(=O)[C@H](CO)NC(=O)[C@H](CO)NC(=O)[C@H](Cc1c[nH]cn1)NC(=O)[C@H](CCCNC(=N)N)NC(=O)[C@H](CC(C)C)NC(=O)[C@H](Cc1ccccc1)NC(=O)[C@H](CC(=O)O)NC(=O)[C@H](C)NC(=O)[C@H](CC(C)C)NC(=O)[C@H](CCCNC(=N)N)NC(=O)[C@H](CCC(N)=O)NC(=O)[C@@H](NC(=O)[C@H](C)NC(=O)[C@@H]1CSSC[C@H](NC(=O)[C@@H](N)CCCCNC(=O)CC[C@H](NC(=O)CC[C@H](NC(=O)CCCCCCCCCCCCCCCCCCC(=O)O)C(=O)O)C(=O)O)C(=O)N[C@@H](CC(N)=O)C(=O)N[C@@H]([C@@H](C)O)C(=O)N[C@@H](C)C(=O)N[C@@H]([C@@H](C)O)C(=O)N1)[C@@H](C)O)C(=O)N1CCC[C@H]1C(=O)N[C@@H](CO)C(=O)N[C@@H](CO)C(=O)N[C@H](C(=O)N[C@@H](CC(N)=O)C(=O)N[C@H](C(=O)NCC(=O)N[C@@H](CO)C(=O)N[C@@H](CCCNC(=N)N)C(=O)N[C@H](C(=O)N[C@@H](Cc1ccc(O)cc1)C(N)=O)[C@@H](C)O)C(C)C)[C@@H](C)O
notes: also called compound 52
B6: N^ε1-[(4S)-4-carboxy-4-[[(4S)-4-carboxy-4-(19-carboxynonadecanoylamino)butanoyl]amino]butanoyl]-[Asp14,Arg17,Pro22,Pro26,Asp35]-h-amylin (peptide)
peptide: K([γGlu-γGlu-C20 diacid])CNTATCATQRLADFLRHSSNPFGAPLSSTNVGSDTY-NH2
modifications: disulfide 2-7; N-terminus assumed
SMILES: CC(C)C[C@H](NC(=O)[C@H](CCCNC(=N)N)NC(=O)[C@H](CCC(N)=O)NC(=O)[C@@H](NC(=O)[C@H](C)NC(=O)[C@@H]1CSSC[C@H](NC(=O)[C@@H](N)CCCCNC(=O)CC[C@H](NC(=O)CC[C@H](NC(=O)CCCCCCCCCCCCCCCCCCC(=O)O)C(=O)O)C(=O)O)C(=O)N[C@@H](CC(N)=O)C(=O)N[C@@H]([C@@H](C)O)C(=O)N[C@@H](C)C(=O)N[C@@H]([C@@H](C)O)C(=O)N1)[C@@H](C)O)C(=O)N[C@@H](C)C(=O)N[C@@H](CC(=O)O)C(=O)N[C@@H](Cc1ccccc1)C(=O)N[C@@H](CC(C)C)C(=O)N[C@@H](CCCNC(=N)N)C(=O)N[C@@H](Cc1c[nH]cn1)C(=O)N[C@@H](CO)C(=O)N[C@@H](CO)C(=O)N[C@@H](CC(N)=O)C(=O)N1CCC[C@H]1C(=O)N[C@@H](Cc1ccccc1)C(=O)NCC(=O)N[C@@H](C)C(=O)N1CCC[C@H]1C(=O)N[C@@H](CC(C)C)C(=O)N[C@@H](CO)C(=O)N[C@@H](CO)C(=O)N[C@H](C(=O)N[C@@H](CC(N)=O)C(=O)N[C@H](C(=O)NCC(=O)N[C@@H](CO)C(=O)N[C@@H](CC(=O)O)C(=O)N[C@H](C(=O)N[C@@H](Cc1ccc(O)cc1)C(N)=O)[C@@H](C)O)C(C)C)[C@@H](C)O
notes: also called compound 3
B7: N^α1-[2-[2-[2-[[2-[2-[2-[[(4S)-4-carboxy-4-(19-carboxynonadecanoylamino)butanoyl]amino]ethoxy]ethoxy]acetyl]amino]ethoxy]ethoxy]acetyl]-[Arg17,Pro21,Pro27]-h-am … (peptide)
peptide: KCNTATCATQRLANFLRHSSPNFGAIPSSTNVGSNTY
modifications: C20 diacid-gGlu-2xOEG on the alpha amino group of the N-terminal Lys1; disulfide Cys2-Cys7; C-terminal amide
notes: also called compound 24

What follows are binders tested against T1, human calcitonin receptor (assay: SPA competition against 125I-calcitonin, membranes with human calcitonin receptor (Assay VII)).
In short: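 BHK hCTR membranes 35 ng/μL + SPA beads 0.05 mg/well; buffer 50 mM Hepes pH 7.4, 1 mM CaCl2, 5 mM MgCl₂, 0.1% OA, 0.02% Tween20. 120 min, 25° C., shaking. Scintillation count; IC50 by one-site binding competition.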

IC50 [nM]	Binder
19.9	B1
32.5	B2
19.5	B3
6.3	B4
56.9	B5
19.5	B6
102	B7
